What was measured:
[1] = target: HER2 (Homo sapiens, UniProt P04626); experiment: Internalization of anti-HER2 ADCs DV, T-DM1 and T-DXd; type: cell-based; set-up: endogenous in cells; host or cells: SK-BR-3, BT-474, HCC-202, EFM-192C, BT-483, CAMA-1, NCI-N87, OE19, RERF-GC-1B; conditions: results considered preliminary
Method: The internalization experiments were conducted by detecting an antibody-bound pH sensitive probe using automated time-lapse microscopy. Briefly, breast cancer cell lines SK-BR-3, BT-474, HCC-202, EFM-192C, BT-483, and CAMA-1 and gastric cancer cell lines NCI-N87, OE19, and RERF-GC-1B were seeded in 96-well flat clear-bottom black tissue culture-treated microplates (Corning, cat #3603). Cells were plated at 1.5×10^4-2.5×10^4 cells/200 μL/well in growth medium and allowed to adhere overnight at 37° C. Disitamab, trastuzumab, and isotype control antibody (human IgG) were labeled with IncuCyte Fabfluor-pH Red Antibody Labeling Reagent (Essen Bioscience, cat #4722) according to the manufacturer's protocol. Volumes of the test antibodies, Fabfluor reagent and medium required were calculated at 2× the final assay concentration, and the Fabfluor reagent was added at a molar ratio of 1:3 to the antibody. Fabfluor dye fluoresces only upon exposure to an acidified compartment, namely endocytic vesicles and lysosomes, signifying internalization and intracellular processing of the ADC. Antibody and Fabfluor were mixed gently and incubated at 37° C. for 15 minutes. Media containing Fabfluor-labeled disitamab or trastuzumab ([…] final concentration) was added to cells. The plates were arranged on microplate trays in the IncuCyte SX3 system (Essen Bioscience), and scans were acquired using the Standard protocol. Phase data and red channel data (acquisition time set to 400 ms) were collected, with 4 images per well every 30 minutes for the first 6 hours and every 2 hours after that for up to 40 hours with the objective set at 10×. Quantification of fluorescence signal intensity was performed using the IncuCyte software analysis tool.
Internalization of anti-HER2 ADCs DV, T-DM1, and T-DXd (two HER2-targeting ADCs with trastuzumab as a backbone) was also tested in breast cancer cell lines SK-BR-3, HCC-202, and BT-483.

[2] = test system: HER2-low breast cancer patient-derived xenograft (PDX) models CTG-1520 (IHC 0), CTG-0012 (IHC 1+), CTG-0670 (IHC 2+); experiment: Tumor volume in HER2-low breast cancer PDX models; type: in vivo, Mice; conditions: single intravenous dose 0.3, 1, 2 or 5 mg/kg; in a subset of the models
Method: First, the anti-tumor effect of DV as a monotherapy was tested in three PDX models with varying HER2 expression levels. Three breast cancer PDX models were used: CTG-1520 (IHC 0), CTG-0012 (IHC 1+), and CTG-0670 (IHC 2+). Mice (n=10/group) were treated with the indicated concentrations of DV (intravenous, single dose), and tumor volume was measured over time. […] Dashed lines represent carry-over of tumor volumes from individual animals that were removed from study when their tumors reached maximum allowable size (less than 3/10 animals per group).
Next, DV and tucatinib were tested as monotherapies and in combination in the three PDX models. Mice (n=10/group) were treated with the indicated concentrations of tucatinib (50 mg/kg oral, twice daily), DV (1 or 2 mg/kg, intravenous, single dose), or a combination of tucatinib and DV, and tumor volume was measured over time. […] Dotted lines represent carry-over of tumor volumes from individual animals that were removed from study when their tumors reached maximum allowable size (less than 3/10 animals per group).

[3] = test system: GA6821 (IHC 1+) gastric cancer PDX; experiment: Tumor volume / normalized AUC in gastric cancer PDX model; type: in vivo, Mice; conditions: GA6821 (FIGS. 12C, 12D); tucatinib 50 mg/kg oral twice daily, DV 2 mg/kg intravenous single dose
Source text: FIGS. […] show the effects of combining DV and tucatinib vs. DV as a single agent in gastric cancer patient-derived xenograft (PDX) models with varying HER2 expression levels: GA13745 (IHC 1+; FIGS. 12A, 12B), GA6821 (IHC 1+; FIGS. 12C, 12D), CTG-0148 (IHC 1+; FIGS. 12E, 12F), CTG-3036 (IHC 2+; FIGS. 12G, 12H), CTG-3033 (IHC 3+; FIGS. 12I, 12J), and GA3102 (IHC 3+; FIGS. 12K, 12L). Treatment with T-DXd, a HER2-directed ADC, was also included in the study. Tumor volume data shown as mean±SEM. For each model, tumor growth was evaluated using a normalized area under the curve (AUC) metric (see, Guo, S. et al. (2019) BMC Cancer 19, 718) (FIGS. 12A, 12C, 12E, 12G, 12I, 12K). AUC was calculated for each model for the duration of the experiment, then compared by one-way ANOVA followed by Tukey's post-hoc test. The box-and-whisker plots represent the median and range for each treatment group (FIGS. 12B, 12D, 12F, 12H, 12J, 12L). […]
DV and tucatinib were tested as monotherapies and in combination in PDX models with varying HER2 expression levels. […] Mice (n=10/group) were treated with tucatinib (50 mg/kg oral, twice daily), DV (2 mg/kg, intravenous, single dose), a combination of tucatinib and DV, or T-DXd (2 mg/kg, intravenous, single dose), and tumor volume was measured over time.

[4] = test system: HCC-38; experiment: 144-hour CellTiter-Glo cytotoxicity assay, DV and T-DXd; type: cell-based; conditions: HCC-38, 20,000 HER2 receptors/cell, 1-10,000 ng/mL
Method: (§1) DV and T-DXd were evaluated against breast cancer cell lines spanning a range of HER2 expression levels (calculated by quantitative flow cytometry): HCC-1954 with 1,259,000 HER2 receptors/cell, MDA-MB-361 with 60,000 HER2 receptors/cell, and HCC-38 with 20,000 HER2 receptors/cell. Drugs were titrated (1-10,000 ng/mL), and viability was tested in a 144-hour CellTiter-Glo cytotoxicity assay.

[5] = test system: HCC-1954; experiment: as above; type: cell-based; conditions: HCC-1954, 1,259,000 HER2 receptors/cell, 1-10,000 ng/mL
Method: as §1

[6] = test system: MDA-MB-361; experiment: as above; type: cell-based; conditions: MDA-MB-361, 60,000 HER2 receptors/cell, 1-10,000 ng/mL
Method: as §1

disitamab vedotin [DV]
internalization compared to T-DM1 and T-DXd ([1]; BT-483): enhanced internalization | internalization compared to T-DM1 and T-DXd ([1]; HCC-202): enhanced internalization | internalization compared to T-DM1 and T-DXd ([1]; SK-BR-3): enhanced internalization | anti-tumor effects (tumor volume) of DV monotherapy [2]: anti-tumor effects in a dose-dependent manner | anti-tumor activity compared to untreated control (normalized AUC tumor growth metric) [3]: significant anti-tumor activity | single-agent cytotoxic activity as compared to T-DXd [4]: more potent single-agent cytotoxic activity | single-agent cytotoxic activity as compared to T-DXd [5]: more potent single-agent cytotoxic activity | single-agent cytotoxic activity as compared to T-DXd [6]: more potent single-agent cytotoxic activity
